± gives the standard deviation of the averaged measurements.
System: ATP
Assay: switch fluorescence ratio, 500 uM ATP over buffer (Cy3 cluster intensity, sum of 5 cycles each) (fold (ratio)); higher = stronger signal-on switching upon ATP binding; sequences stand for … in TCGTCGGCAGCGTCAGATGTGTATAAGAGACAGTTTTTTTTTTTTTTTTTTTTTTTTT…TC
Conditions: aptamer strand: ATP DNA aptamer (quencher-CACCTGGGGGAGTATTGCGGAGGAAGG + anchor), 100 nM annealed; ATP concentration: 500 uM
How it was run: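 The fluorescence ratio divides summed target-cycle Cy3 intensity by summed buffer-cycle Cy3 intensity for each cluster and is averaged per switch-domain sequence. Cy3-labelled switching-strand clusters on a modified Illumina MiSeq flow-cell were annealed to 100 nM quencher-labelled ATP aptamer, then imaged in selection buffer and again after 15 min with 500 uM ATP at 22 °C. Five such cycles were run, with NaOH stripping and re-annealing between them, and clusters outside 100-1000 RFU were excluded.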
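Also: ATP exposure 15 min at 22 °C before imaging.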

TTTAGACGAC and TTTAGACTAG are within error of each other in switch fluorescence ratio: 1.04 ± 0.051 for the first, 0.987 ± 0.017 for the second.

TTTAGAGATT and TTTAGAGTAT are within error of each other in switch fluorescence ratio: 1.01 ± 0.068 for the first, 0.992 ± 0.018 for the second.

TTTAGAGTTT and TTTAGATAAC are within error of each other in switch fluorescence ratio: 0.997 ± 0.032 for the first, 1.02 ± 0.044 for the second.

TTTAGATAGG and TTTAGATTTA are within error of each other in switch fluorescence ratio: 0.98 ± 0.026 for the first, 1.04 ± 0.042 for the second.

First: TTTAGATTTT
Second: TTTAGCAAAC
The switch fluorescence ratio of the first is lower: 0.998 ± 0.026 for the first, 3.53 ± 0.95 for the second.

TTTAGCATTT and TTTAGCCCTT are within error of each other in switch fluorescence ratio: 0.997 ± 0.014 for the first, 1.01 ± 0.037 for the second.

TTTAGCGGAT and TTTAGCTGGG are within error of each other in switch fluorescence ratio: 1.02 ± 0.019 for the first, 1.01 ± 0.019 for the second.

TTTAGCTGGT and TTTAGCTTAA are the same in switch fluorescence ratio: 0.986 ± 0.033 for the first, 0.986 ± 0.021 for the second.

TTTAGGACAG and TTTAGGCATG are within error of each other in switch fluorescence ratio: 1.01 ± 0.011 for the first, 0.9966 ± 0.0076 for the second.

TTTAGGGACG and TTTAGGGGG are within error of each other in switch fluorescence ratio: 0.955 ± 0.14 for the first, 1.04 ± 0.067 for the second.

TTTAGGGGTA and TTTAGGGGTC are within error of each other in switch fluorescence ratio: 0.996 ± 0.018 for the first, 0.981 ± 0.024 for the second.

TTTAGGGTGG and TTTAGGTACG are within error of each other in switch fluorescence ratio: 1.01 ± 0.012 for the first, 1 ± 0.018 for the second.

TTTAGGTAGG and TTTAGGTATG are within error of each other in switch fluorescence ratio: 1 ± 0.02 for the first, 0.987 ± 0.03 for the second.

TTTAGGTTCC and TTTAGTACTG are within error of each other in switch fluorescence ratio: 1.015 ± 0.005 for the first, 1.05 ± 0.032 for the second.

TTTAGTAGGG and TTTAGTCTGC are within error of each other in switch fluorescence ratio: 1 ± 0.027 for the first, 0.993 ± 0.018 for the second.

TTTAGTGAG and TTTAGTGGGT are within error of each other in switch fluorescence ratio: 1.02 ± 0.011 for the first, 0.984 ± 0.026 for the second.

TTTAGTGTGG and TTTAGTTAAG are within error of each other in switch fluorescence ratio: 1.02 ± 0.044 for the first, 0.945 ± 0.038 for the second.

TTTAGTTCGG and TTTAGTTTGG are within error of each other in switch fluorescence ratio: 0.998 ± 0.027 for the first, 1 ± 0.031 for the second.

Going from TTTATAACCT to TTTATAAGGG, the switch fluorescence ratio falls from 1.7 ± 0.61 to 0.995 ± 0.013.

TTTATACGGG and TTTATACGT are within error of each other in switch fluorescence ratio: 1.02 ± 0.039 for the first, 0.9783 ± 0.0067 for the second.

TTTATAGGGT and TTTATAGGT are within error of each other in switch fluorescence ratio: 1 ± 0.032 for the first, 0.9713 ± 0.0062 for the second.

TTTATAGTAT and TTTATAGTTA are within error of each other in switch fluorescence ratio: 0.993 ± 0.03 for the first, 0.979 ± 0.039 for the second.

TTTATATACG and TTTATATATA are within error of each other in switch fluorescence ratio: 0.991 ± 0.017 for the first, 1.005 ± 0.0095 for the second.

TTTATATATG and TTTATATATT are within error of each other in switch fluorescence ratio: 1 ± 0.024 for the first, 1.01 ± 0.028 for the second.

TTTATATC and TTTATATGAG are within error of each other in switch fluorescence ratio: 1.07 ± 0.11 for the first, 0.999 ± 0.044 for the second.

Going from TTTATATTCG to TTTATCAACG, the switch fluorescence ratio rises from 0.989 ± 0.033 to 1.046 ± 0.0027.

TTTATCGATT and TTTATCTGTG are within error of each other in switch fluorescence ratio: 0.991 ± 0.036 for the first, 0.954 ± 0.019 for the second.

TTTATCTTGT and TTTATCTTTG are within error of each other in switch fluorescence ratio: 0.9852 ± 0.0016 for the first, 1 ± 0.027 for the second.

First: TTTATGAGAT
Second: TTTATGATTA
The switch fluorescence ratio of the first is lower: 1 ± 0.027 for the first, 1.035 ± 0.005 for the second.

TTTATGGCGT and TTTATGGCTT are the same in switch fluorescence ratio: 1.008 ± 0.0097 for the first, 1.01 ± 0.046 for the second.

TTTATGGGAC and TTTATGGGCA are within error of each other in switch fluorescence ratio: 0.999 ± 0.052 for the first, 1.04 ± 0.05 for the second.

TTTATGGGTT and TTTATGTAAG are within error of each other in switch fluorescence ratio: 0.985 ± 0.018 for the first, 0.988 ± 0.065 for the second.

TTTATGTACG and TTTATGTTTG are within error of each other in switch fluorescence ratio: 0.985 ± 0.054 for the first, 1.01 ± 0.035 for the second.

TTTATTAACT and TTTATTAAGG are within error of each other in switch fluorescence ratio: 1.06 ± 0.072 for the first, 1 ± 0.023 for the second.

TTTATTAATC and TTTATTACAT are within error of each other in switch fluorescence ratio: 0.99544 ± 0.00085 for the first, 0.996 ± 0.014 for the second.

TTTATTAGGC and TTTATTCGTT are within error of each other in switch fluorescence ratio: 0.996 ± 0.022 for the first, 0.9784 ± 0.0063 for the second.

First: TTTATTCTG
Second: TTTATTTAGG
The switch fluorescence ratio of the first is lower: 0.9873 ± 0.0064 for the first, 1.04 ± 0.011 for the second.

First: TTTATTTCCT
Second: TTTATTTTAA
The switch fluorescence ratio of the first is higher: 1.07 ± 0.04 for the first, 0.995 ± 0.028 for the second.

TTTATTTTGC and TTTATTTTTA are within error of each other in switch fluorescence ratio: 1.01 ± 0.036 for the first, 0.986 ± 0.019 for the second.

TTTCAAAAGG and TTTCAAAAT are within error of each other in switch fluorescence ratio: 1.01 ± 0.019 for the first, 1.035 ± 0.0037 for the second.

TTTCAAGTTT and TTTCAATGTA are within error of each other in switch fluorescence ratio: 1.16 ± 0.3 for the first, 1.01 ± 0.039 for the second.

TTTCAATTAA and TTTCAATTGT are within error of each other in switch fluorescence ratio: 1 ± 0.013 for the first, 1.02 ± 0.047 for the second.

Sequence TTTCACAGCG has a switch fluorescence ratio of 1.01 ± 0.011.

From the supplement of paper PMC10126150
